Results published in patent CN114106174A.

Biological target: OX40 on OX40-overexpressing cells (OX40过表达细胞表面OX40) (UniProt P43489)
Experiment: flow cytometry, positive control at 1 microgram/ml on OX40-overexpressing cells, goat anti-mouse IgG-PE

Sequence of UniProt P43489 (P43489 29-277 limits assumed): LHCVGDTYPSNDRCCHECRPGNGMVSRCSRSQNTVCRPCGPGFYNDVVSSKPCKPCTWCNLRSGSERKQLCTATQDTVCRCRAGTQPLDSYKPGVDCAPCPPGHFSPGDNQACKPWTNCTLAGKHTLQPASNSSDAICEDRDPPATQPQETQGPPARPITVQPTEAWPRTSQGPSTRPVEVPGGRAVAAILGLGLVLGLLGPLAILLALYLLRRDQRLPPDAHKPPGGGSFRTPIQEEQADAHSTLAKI

抗-OX40抗体 (clone ACT35, Biolegend) (antibody)
Y586通道PE荧光值: 210000
